In US20220204580A1 (AstraZeneca / MedImmune, published 2022):
Numbered stars: 1 amine (or outer) side, 2 acyl side, 3 side chain; on linkers, the order of the positions; unused ones are H or OH. Bridge positions count the residues as written; N and C are the ends. Square brackets hold non-standard residues; d marks the D form. Side chains are listed from the residue outwards. Ends that are not written are not given here. * marks the point of attachment. C18 diacid = O=C(O)CCCCCCCCCCCCCCCCC(=O)*; γGlu = O=C(O)[C@H](CCC(=O)[*:2])N[*:1]; αMeF = C[C@](N)(Cc1ccccc1)C(=O)O; Dab = NCC[C@H](N)C(=O)O; Aib = CC(C)(N)C(=O)O

T1: human amylin receptor (calcitonin receptor co-expressed with receptor activity modifying protein, RAMP3) (human, UniProt P30988 25-474; O60896 24-148)
T1 sequence (looked up) 1: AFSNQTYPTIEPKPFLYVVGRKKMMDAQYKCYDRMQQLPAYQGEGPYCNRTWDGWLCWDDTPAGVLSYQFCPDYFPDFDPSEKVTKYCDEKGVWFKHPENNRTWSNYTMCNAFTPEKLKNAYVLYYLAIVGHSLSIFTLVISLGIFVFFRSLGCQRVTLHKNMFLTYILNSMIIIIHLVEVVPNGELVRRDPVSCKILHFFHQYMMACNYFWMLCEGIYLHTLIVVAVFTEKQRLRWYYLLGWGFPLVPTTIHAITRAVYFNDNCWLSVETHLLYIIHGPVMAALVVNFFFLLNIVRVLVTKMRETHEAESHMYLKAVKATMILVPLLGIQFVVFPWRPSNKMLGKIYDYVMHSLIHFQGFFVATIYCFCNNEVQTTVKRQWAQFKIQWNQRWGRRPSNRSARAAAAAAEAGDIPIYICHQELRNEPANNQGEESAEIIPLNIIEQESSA
T1 sequence (looked up) 2: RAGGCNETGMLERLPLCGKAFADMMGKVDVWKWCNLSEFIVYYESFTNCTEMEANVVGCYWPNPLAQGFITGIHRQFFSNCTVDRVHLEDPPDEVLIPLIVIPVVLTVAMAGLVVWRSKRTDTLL

T2: human calcitonin receptor (human, UniProt P30988 25-474)
T2 sequence (looked up): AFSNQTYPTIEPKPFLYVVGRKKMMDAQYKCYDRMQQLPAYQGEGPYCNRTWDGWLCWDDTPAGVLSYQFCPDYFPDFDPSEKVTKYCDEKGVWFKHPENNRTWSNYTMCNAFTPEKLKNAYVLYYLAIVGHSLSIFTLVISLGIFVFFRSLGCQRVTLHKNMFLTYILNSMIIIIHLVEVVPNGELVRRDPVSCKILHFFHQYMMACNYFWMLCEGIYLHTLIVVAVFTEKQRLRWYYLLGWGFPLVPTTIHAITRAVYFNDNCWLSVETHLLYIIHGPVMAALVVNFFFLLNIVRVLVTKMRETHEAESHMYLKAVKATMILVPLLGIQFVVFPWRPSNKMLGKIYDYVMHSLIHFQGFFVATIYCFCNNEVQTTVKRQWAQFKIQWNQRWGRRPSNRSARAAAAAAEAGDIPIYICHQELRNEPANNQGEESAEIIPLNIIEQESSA


Columns and labels:
[1] = molecular target: T1, human amylin receptor (calcitonin …); assay: cell-based or functional assay
[2] = molecular target: T2, human calcitonin receptor; assay: cell-based or functional assay

Binder	EC50 (cAMP production) [1]	Ratio (EC50 hCTR / EC50 hAMYR3) [1]	EC50 (cAMP production) [2]
K([γGlu-C18 diacid])CNTATCATQRLANFLRHSSNN[αMeF]GPILPPTEVGSNTY-NH2 (disulfide 2-7; N-terminus assumed; SMILES CC[C@H](C)[C@H](NC(=O)[C@@H]1CCCN1C(=O)CNC(=O)[C@](C)(Cc1ccccc1)NC(=O)[C@H](CC(N)=O)NC(=O)[C@H](CC(N)=O)NC(=O)[C@H](CO)NC(=O)[C@H](CO)NC(=O)[C@H](Cc1c[nH]cn1)NC(=O)[C@H](CCCNC(=N)N)NC(=O)[C@H](CC(C)C)NC(=O)[C@H](Cc1ccccc1)NC(=O)[C@H](CC(N)=O)NC(=O)[C@H](C)NC(=O)[C@H](CC(C)C)NC(=O)[C@H](CCCNC(=N)N)NC(=O)[C@H](CCC(N)=O)NC(=O)[C@@H](NC(=O)[C@H](C)NC(=O)[C@@H]1CSSC[C@H](NC(=O)[C@@H](N)CCCCNC(=O)CC[C@H](NC(=O)CCCCCCCCCCCCCCCCC(=O)O)C(=O)O)C(=O)N[C@@H](CC(N)=O)C(=O)N[C@@H]([C@@H](C)O)C(=O)N[C@@H](C)C(=O)N[C@@H]([C@@H](C)O)C(=O)N1)[C@@H](C)O)C(=O)N[C@@H](CC(C)C)C(=O)N1CCC[C@H]1C(=O)N1CCC[C@H]1C(=O)N[C@H](C(=O)N[C@@H](CCC(=O)O)C(=O)N[C@H](C(=O)NCC(=O)N[C@@H](CO)C(=O)N[C@@H](CC(N)=O)C(=O)N[C@H](C(=O)N[C@@H](Cc1ccc(O)cc1)C(N)=O)[C@@H](C)O)C(C)C)[C@@H](C)O) [Peptide 16 (SEQ ID NO: 16)]	0.221 nM	9	2.02 nM
K([γGlu-C18 diacid])CNTATCATQRLANFL[Aib]HSS[Dab]NFGPILPPTNVGSNTY-NH2 (disulfide 2-7; N-terminus assumed; SMILES CC[C@H](C)[C@H](NC(=O)[C@@H]1CCCN1C(=O)CNC(=O)[C@H](Cc1ccccc1)NC(=O)[C@H](CC(N)=O)NC(=O)[C@H](CCN)NC(=O)[C@H](CO)NC(=O)[C@H](CO)NC(=O)[C@H](Cc1c[nH]cn1)NC(=O)C(C)(C)NC(=O)[C@H](CC(C)C)NC(=O)[C@H](Cc1ccccc1)NC(=O)[C@H](CC(N)=O)NC(=O)[C@H](C)NC(=O)[C@H](CC(C)C)NC(=O)[C@H](CCCNC(=N)N)NC(=O)[C@H](CCC(N)=O)NC(=O)[C@@H](NC(=O)[C@H](C)NC(=O)[C@@H]1CSSC[C@H](NC(=O)[C@@H](N)CCCCNC(=O)CC[C@H](NC(=O)CCCCCCCCCCCCCCCCC(=O)O)C(=O)O)C(=O)N[C@@H](CC(N)=O)C(=O)N[C@@H]([C@@H](C)O)C(=O)N[C@@H](C)C(=O)N[C@@H]([C@@H](C)O)C(=O)N1)[C@@H](C)O)C(=O)N[C@@H](CC(C)C)C(=O)N1CCC[C@H]1C(=O)N1CCC[C@H]1C(=O)N[C@H](C(=O)N[C@@H](CC(N)=O)C(=O)N[C@H](C(=O)NCC(=O)N[C@@H](CO)C(=O)N[C@@H](CC(N)=O)C(=O)N[C@H](C(=O)N[C@@H](Cc1ccc(O)cc1)C(N)=O)[C@@H](C)O)C(C)C)[C@@H](C)O) [Peptide 150 (SEQ ID NO: 150)]	0.179 nM	23.4	4.18 nM
K([γGlu-C18 diacid])KCNTATCATQRLANFL[Aib]HSSNNFGPILPPTHVGSETY-NH2 (disulfide 3-8; N-terminus assumed; SMILES CC[C@H](C)[C@H](NC(=O)[C@@H]1CCCN1C(=O)CNC(=O)[C@H](Cc1ccccc1)NC(=O)[C@H](CC(N)=O)NC(=O)[C@H](CC(N)=O)NC(=O)[C@H](CO)NC(=O)[C@H](CO)NC(=O)[C@H](Cc1c[nH]cn1)NC(=O)C(C)(C)NC(=O)[C@H](CC(C)C)NC(=O)[C@H](Cc1ccccc1)NC(=O)[C@H](CC(N)=O)NC(=O)[C@H](C)NC(=O)[C@H](CC(C)C)NC(=O)[C@H](CCCNC(=N)N)NC(=O)[C@H](CCC(N)=O)NC(=O)[C@@H](NC(=O)[C@H](C)NC(=O)[C@@H]1CSSC[C@H](NC(=O)[C@H](CCCCN)NC(=O)[C@@H](N)CCCCNC(=O)CC[C@H](NC(=O)CCCCCCCCCCCCCCCCC(=O)O)C(=O)O)C(=O)N[C@@H](CC(N)=O)C(=O)N[C@@H]([C@@H](C)O)C(=O)N[C@@H](C)C(=O)N[C@@H]([C@@H](C)O)C(=O)N1)[C@@H](C)O)C(=O)N[C@@H](CC(C)C)C(=O)N1CCC[C@H]1C(=O)N1CCC[C@H]1C(=O)N[C@H](C(=O)N[C@@H](Cc1c[nH]cn1)C(=O)N[C@H](C(=O)NCC(=O)N[C@@H](CO)C(=O)N[C@@H](CCC(=O)O)C(=O)N[C@H](C(=O)N[C@@H](Cc1ccc(O)cc1)C(N)=O)[C@@H](C)O)C(C)C)[C@@H](C)O) [Peptide 146 (SEQ ID NO: 146)]	2.53 nM	1.9	4.87 nM
K([γGlu-C18 diacid])KCNTATCATQRLANFL[Aib]HSSNNFGPILPPTNVGHNTY-NH2 (disulfide 3-8; N-terminus assumed; SMILES CC[C@H](C)[C@H](NC(=O)[C@@H]1CCCN1C(=O)CNC(=O)[C@H](Cc1ccccc1)NC(=O)[C@H](CC(N)=O)NC(=O)[C@H](CC(N)=O)NC(=O)[C@H](CO)NC(=O)[C@H](CO)NC(=O)[C@H](Cc1c[nH]cn1)NC(=O)C(C)(C)NC(=O)[C@H](CC(C)C)NC(=O)[C@H](Cc1ccccc1)NC(=O)[C@H](CC(N)=O)NC(=O)[C@H](C)NC(=O)[C@H](CC(C)C)NC(=O)[C@H](CCCNC(=N)N)NC(=O)[C@H](CCC(N)=O)NC(=O)[C@@H](NC(=O)[C@H](C)NC(=O)[C@@H]1CSSC[C@H](NC(=O)[C@H](CCCCN)NC(=O)[C@@H](N)CCCCNC(=O)CC[C@H](NC(=O)CCCCCCCCCCCCCCCCC(=O)O)C(=O)O)C(=O)N[C@@H](CC(N)=O)C(=O)N[C@@H]([C@@H](C)O)C(=O)N[C@@H](C)C(=O)N[C@@H]([C@@H](C)O)C(=O)N1)[C@@H](C)O)C(=O)N[C@@H](CC(C)C)C(=O)N1CCC[C@H]1C(=O)N1CCC[C@H]1C(=O)N[C@H](C(=O)N[C@@H](CC(N)=O)C(=O)N[C@H](C(=O)NCC(=O)N[C@@H](Cc1c[nH]cn1)C(=O)N[C@@H](CC(N)=O)C(=O)N[C@H](C(=O)N[C@@H](Cc1ccc(O)cc1)C(N)=O)[C@@H](C)O)C(C)C)[C@@H](C)O) [Peptide 145 (SEQ ID NO: 145)]	0.417 nM	4.5	1.88 nM

Other lines, results leading:

EC50 (cAMP production) [1]	Ratio (EC50 hCTR / EC50 hAMYR3) [1]	EC50 (cAMP production) [2]	Binder
0.802 nM	1.9	1.51 nM	K([γGlu-C18 diacid])KCNTATCATQRLANFL[Aib]HSSNHFGPILPPTNVGSETY-NH2 (disulfide 3-8; N-terminus assumed; SMILES CC[C@H](C)[C@H](NC(=O)[C@@H]1CCCN1C(=O)CNC(=O)[C@H](Cc1ccccc1)NC(=O)[C@H](Cc1c[nH]cn1)NC(=O)[C@H](CC(N)=O)NC(=O)[C@H](CO)NC(=O)[C@H](CO)NC(=O)[C@H](Cc1c[nH]cn1)NC(=O)C(C)(C)NC(=O)[C@H](CC(C)C)NC(=O)[C@H](Cc1ccccc1)NC(=O)[C@H](CC(N)=O)NC(=O)[C@H](C)NC(=O)[C@H](CC(C)C)NC(=O)[C@H](CCCNC(=N)N)NC(=O)[C@H](CCC(N)=O)NC(=O)[C@@H](NC(=O)[C@H](C)NC(=O)[C@@H]1CSSC[C@H](NC(=O)[C@H](CCCCN)NC(=O)[C@@H](N)CCCCNC(=O)CC[C@H](NC(=O)CCCCCCCCCCCCCCCCC(=O)O)C(=O)O)C(=O)N[C@@H](CC(N)=O)C(=O)N[C@@H]([C@@H](C)O)C(=O)N[C@@H](C)C(=O)N[C@@H]([C@@H](C)O)C(=O)N1)[C@@H](C)O)C(=O)N[C@@H](CC(C)C)C(=O)N1CCC[C@H]1C(=O)N1CCC[C@H]1C(=O)N[C@H](C(=O)N[C@@H](CC(N)=O)C(=O)N[C@H](C(=O)NCC(=O)N[C@@H](CO)C(=O)N[C@@H](CCC(=O)O)C(=O)N[C@H](C(=O)N[C@@H](Cc1ccc(O)cc1)C(N)=O)[C@@H](C)O)C(C)C)[C@@H](C)O) [Peptide 147 (SEQ ID NO: 147)]
0.191 nM	3.8	0.728 nM	K([γGlu-C18 diacid])KCNTATCATQRLANFL[Aib]HSSNNFGPILPPTNVGPNTY-NH2 (disulfide 3-8; N-terminus assumed; SMILES CC[C@H](C)[C@H](NC(=O)[C@@H]1CCCN1C(=O)CNC(=O)[C@H](Cc1ccccc1)NC(=O)[C@H](CC(N)=O)NC(=O)[C@H](CC(N)=O)NC(=O)[C@H](CO)NC(=O)[C@H](CO)NC(=O)[C@H](Cc1c[nH]cn1)NC(=O)C(C)(C)NC(=O)[C@H](CC(C)C)NC(=O)[C@H](Cc1ccccc1)NC(=O)[C@H](CC(N)=O)NC(=O)[C@H](C)NC(=O)[C@H](CC(C)C)NC(=O)[C@H](CCCNC(=N)N)NC(=O)[C@H](CCC(N)=O)NC(=O)[C@@H](NC(=O)[C@H](C)NC(=O)[C@@H]1CSSC[C@H](NC(=O)[C@H](CCCCN)NC(=O)[C@@H](N)CCCCNC(=O)CC[C@H](NC(=O)CCCCCCCCCCCCCCCCC(=O)O)C(=O)O)C(=O)N[C@@H](CC(N)=O)C(=O)N[C@@H]([C@@H](C)O)C(=O)N[C@@H](C)C(=O)N[C@@H]([C@@H](C)O)C(=O)N1)[C@@H](C)O)C(=O)N[C@@H](CC(C)C)C(=O)N1CCC[C@H]1C(=O)N1CCC[C@H]1C(=O)N[C@H](C(=O)N[C@@H](CC(N)=O)C(=O)N[C@H](C(=O)NCC(=O)N1CCC[C@H]1C(=O)N[C@@H](CC(N)=O)C(=O)N[C@H](C(=O)N[C@@H](Cc1ccc(O)cc1)C(N)=O)[C@@H](C)O)C(C)C)[C@@H](C)O) [Peptide 148 (SEQ ID NO: 148)]
